This note sets out measurements from patent publication US7291332B2, “Inflammatory mediator antagonists” (SmithKline Beecham Corporation, priority 1998, dated 2007).

Entries after “also recorded” stand apart in the source; their conditions may differ.

For assay [1], the system named is TNFα-induced sPAP release, A549 cells. Briefly: A549 cells: TNFα-induced sPAP assay. It is filed as cell-based, human. The method, then:
This assay used A549 cells that had been stably transfected with a reporter gene, comprising the cytokine responsive region of the E-selectin gene coupled to alkaline phosphatase (Ray et al., Biochem J. 328:707-715, 1997). This transfected cell line can be driven to produce sPAP by overnight incubation with TNFα.
A549 cells were plated into 96 well plates to a final concentration of 5×10^4 cells per well in […] of media. Cells were allowed to equilibrate for 24 hours. Putative anti-OSM solid compounds are made up to a stock dilution of 20 mM in DMSO and serially diluted 1:3 in DMSO. This was then further diluted in media (DMEM, 1% heat inactivated FCS, low alkaline phosphatase activity, 1% non-essential amino acids, 2 mM Glutamine, 500 μg ml^−1 G418, (all from Life Technologies), to give a concentration response of 0.09-200 μM in a final concentration of 1% DMSO. The old media was removed from the wells and replaced with diluted compound also containing 3 ng ml^−1 TNFα (R&D Systems), cells were incubated for a further 20 hours. Each dilution was performed in triplicate. 20 μl of media was removed from each well and assayed for sPAP activity using p-Nitrophenyl phosphate (Sigma), as a substrate. […] Optical density of substrate is read at 405-650 nm. Concentration of compound is plotted against OD as a measure of sPAP produced and can be analysed to determine IC50 values.

In assay [2] the test system is OSM-induced sPAP release, HepG2 B6 cells. Put plainly: HepG2 B6: OSM-induced sPAP assay. The class given is cell-based, human. An excerpt:
A HepG2 cell line (ECACC) was stably transfected with six functional STAT3 response elements (REs) upstream of sPAP (secreted placental alkaline phosphatase) cDNA as described below to form HepG2B6. STAT3 (signal transducer and activator of transcription) is an intermediate in the IL-6 cytokine family […] signalling cascade. Following dimerisation of cell surface receptors STAT3 is phosphorylated and will then bind to DNA REs in the nucleus and activate DNA downstream, in this construct that DNA is sPAP. Thus this line can be driven to produce sPAP by overnight incubation in Oncostatin M.
(§1) HepG2 B6 cells were plated into 96 well plates to a final concentration of 3×10^4 cells per well in 100 μl of media (DMEM (Sigma), 10% HI FCS, 1% non-essential amino acids, 2 mM Glutamine, 500 μg ml^−1 G418, (all from Life Technologies)). Cells were allowed to equilibrate for 48 hours. Putative anti-OSM solid compounds were made up to a stock dilution of 20 mM in DMSO and serially diluted 1:3 in DMSO. This was then further diluted in HepG26B assay media, this is as above media but with 1% heat inactivated FCS, low alkaline phosphatase activity (Life Technologies) substituted for 10% HI FCS. Compounds were diluted 1:3 from a top concentration of […] to a final concentration of 0.09 μM in a final concentration of 1% DMSO. (That is 200, 66.67, 22.22, 7.41, 2.47, 0.82, 0.27, 0.09 and 0 μM). The old media was removed from the wells and replaced with diluted compound also containing 2 ng ml^−1 OSM (R&D Systems), cells were incubated for a further 20 hours. Each dilution was performed in triplicate. 20 μl of media was removed from each well and assayed for sPAP activity using pNPP (p-Nitrophenyl phosphate; Sigma), as a substrate. Endogenous alkaline phosphatase is blocked with L-homoarginine. Optical density of substrate is read at 405-650 nm. Concentration of compound is plotted against OD as a measure of sPAP produced and can be analysed to determine IC50 values.

Assay [3] concerns the target T1, L-selectin (Homo sapiens, UniProt P14151).
T1 construct: endogenous in cells; host or cells: human peripheral blood mononuclear cells (buffy coats)
T1 sequence (P14151 39-372): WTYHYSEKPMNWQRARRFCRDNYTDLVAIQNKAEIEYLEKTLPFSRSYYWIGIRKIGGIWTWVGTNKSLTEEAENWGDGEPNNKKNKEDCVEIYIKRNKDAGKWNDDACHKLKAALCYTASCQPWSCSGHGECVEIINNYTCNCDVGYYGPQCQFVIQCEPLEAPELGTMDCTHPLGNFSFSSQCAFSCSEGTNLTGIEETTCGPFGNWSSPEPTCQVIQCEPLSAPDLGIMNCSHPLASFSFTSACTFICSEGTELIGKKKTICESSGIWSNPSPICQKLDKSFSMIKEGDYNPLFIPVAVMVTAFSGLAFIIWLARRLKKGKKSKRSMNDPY
Briefly: Stimulation of PBMC via L-selectin: OSM secretion (ELISA). The class given is cell-based. Conditions: 24 hr incubation. As for the experimental part:
Mononuclear cells were isolated from human buffy coats as described above. 5×10^5 cells were plated out in 0.5 ml volumes and incubated for 24 hr at 37° C., 5% CO2 with 60-80 kD M. wt. fucoidan (Sigma) anti-L-selectin monoclonal antibodies, LAM1-3 and TQ1 or an isotype matched control IgG antibody (all from Coulter). Supernatants were assayed for OSM using a specific ELISA assay (Quantikine, R&D Systems), according to the Manufacturer's instructions.
Mononuclear cells from healthy donors were incubated for 24 hrs with anti-human L-selectin antibodies, (either TQ1 or LAM-1), or an isotype-matched control antibody and culture supernatants assayed by ELISA for OSM. […] The ability of the L-selectin agonist fucoidan to induce OSM from mononuclear cell cultures was then investigated.

For assay [4], the target named is T2, gp130-Fc (Homo sapiens, UniProt P40189).
T2 construct: DNA encoding the extracellular domain of human gp130 was amplified; made in house; host or cells: insect cells (Bac-to-Bac baculovirus) for gp130-Fc; E. coli BLR-DE3 for OSM
T2 sequence (P40189 23-619 limits assumed): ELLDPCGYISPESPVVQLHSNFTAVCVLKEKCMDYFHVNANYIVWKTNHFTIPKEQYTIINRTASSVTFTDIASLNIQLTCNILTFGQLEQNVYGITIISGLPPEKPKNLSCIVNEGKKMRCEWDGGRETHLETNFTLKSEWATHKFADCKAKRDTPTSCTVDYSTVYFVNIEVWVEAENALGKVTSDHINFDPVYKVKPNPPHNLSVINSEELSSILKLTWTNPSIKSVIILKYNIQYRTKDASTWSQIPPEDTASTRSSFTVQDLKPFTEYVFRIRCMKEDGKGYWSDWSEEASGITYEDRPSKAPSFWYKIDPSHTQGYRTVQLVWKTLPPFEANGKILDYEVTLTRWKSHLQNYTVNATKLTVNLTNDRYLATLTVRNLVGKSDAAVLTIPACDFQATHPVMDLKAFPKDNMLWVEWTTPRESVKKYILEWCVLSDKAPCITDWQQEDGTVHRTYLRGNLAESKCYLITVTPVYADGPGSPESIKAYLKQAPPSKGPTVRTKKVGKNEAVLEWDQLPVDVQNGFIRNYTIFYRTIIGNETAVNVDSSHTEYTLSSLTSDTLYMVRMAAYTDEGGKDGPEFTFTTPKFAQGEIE
Put plainly: Competition of OSM-GST with plate-bound wild type OSM for binding to gp130-Fc (ELISA). The method, then: Nunc Immunoplates (F6 Maxisorp, Life Technologies) were coated overnight (4° C.) with wild type OSM (produced according to Example 7a); 50 μl/well, 1 μg/ml in carbonate/bicarbonate buffer pH 9.4). Plates were washed (×6 in PBS 0.05% tween 20, using Skatron Plate washer), tapped dry and blocked to reduce non-specific binding (200 μl/well, 1% BSA/PBS). Following 1 h incubation (room temperature on a shaking platform) the plates were tapped dry and wild type (wt) or mutant OSM-GST from Example 9b added (50 μl/well, 20-0.002 μg/ml, titrated in 1%BSA/PBS). As a positive control polyclonal anti-human OSM antibody (R&D Systems) was also tested (20-0.02 μg/ml). A complex of gp130-Fc (Produced as below 300 ng/ml) and anti-human IgG alkaline phosphatase conjugate (1:500, Sigma) in 1% BSA/PBS (50 μl/well) was added immediately after the agents under test. Following a 5 h incubation (room temperature on a shaking platform) the plates were washed (×6) and developed using ELISA Amplification System (Life Technologies) as manufacturer's instructions and the OD measured at 490 nm. On each plate the total binding was determined by gp130-Fc/conjugate and OSM in the presence of 1% BSA/PBS, and non-specific binding by gp130-Fc/conjugate in absence of OSM, or conjugate binding to OSM in absence of gp130-Fc.
Mutant and wt OSM-GST were tested to obtain IC50 in 3-6 experiments. The mean OD in the presence of OSM and gp130-Fc in the absence of competing ligand (i.e., total binding) was 1.157 (range 0.825-1.807) and the non specific binding was less than 0.08.
Background: ELISA stands for enzyme-linked immunosorbent assay.

Assay [5] relates to HepG2 B6 cells (STAT-sPAP reporter). Put plainly: OSM-GST mutant driven sPAP production in HepG2 B6 assay. The class given is cell-based, human. Conditions: for 'Potency': relative to wild type, from Mean %. The method, then:
as §1
The assay described in Example 7b above was employed. OSM-GST mutants were diluted to a concentration of 100 ng ml^−using the known concentration of intact OSM mutants generated in Example 9b. A wild type OSM-GST was included for control purposes. Dilutions were made in HepG2 B6 media with 1% heat inactivated FCS, low alkaline phosphatase activity. Serial 1:3 dilutions were then made. (100; 33.33; 11.11; 3.7; 1.23; 0.4 ng ml^−1). 3×10^4 HepG2 B6 were dispensed into individual well of a 96 well plate in 100 μl of media. Cells were allowed to equilibrate for 48 hours. Media was then removed and replaced with 100 μl of diluted OSM-GST mutant. Cells were incubated for a further 20 hours. Each dilution was performed in triplicate. 20 μl of media was removed and assayed for sPAP using pNPP as a substrate. Endogenous ALP was blocked with L-homoarginine. O.D. was read at 405-650 nm. The experiment was repeated twice.

By IC50 is commonly meant the concentration that inhibits the measured activity by half.

On to `O=C(Nc1ncnc2[nH]ncc12)c1ccccc1` [GW 340442X, N-(1H-pyrazolo[3,4-d]pyrimidin-4-yl)benzamide], for which the “inhibition of TNFα-induced sPAP release” value in assay [1] (A549 cells) is reported as “limited inhibition”. Moreover, the half-inhibitory concentration (IC50) in assay [1] (Homo sapiens, A549, 3 ng/ml TNFα, 20 hours, read-out: approx. IC50, inhibition of TNFα-induced sPAP) is roughly 92 µM; in assay [2] (Homo sapiens, HepG2, 2 ng/ml OSM, 20 hours, read-out: IC50, inhibition of OSM-induced sPAP release) it was 0.3 µM. The “inhibition of OSM-induced sPAP release” value in assay [2] (HepG2 B6) is recorded as “concentration-dependent inhibition”. Further, the “selectivity for OSM over TNFα” value in assay [2] (from sPAP IC50 values) is recorded as “greater than 100 fold”.

For the molecule fucoidan, the “OSM secretion by mononuclear cells” value in assay [3] is “powerful stimulant of OSM secretion”.

B1: (20) G120A: OSM-GST fusion, alanine for Gly 120 (protein)
chain: AAIGSCSKEYRVLLGQLQKQTDLMQDTSRLLDPYIRIQGLDVPKLREHCRERPGAFPSEETLRGLGRRGFLQTLNATLGCVLHRLADLEQRLPKAQDLERSGLNIEDLEKLQMARPNILALRNNIYCMAQLLDNSDTAEPTKAGRGASQPPTPTPASDAFQRKLEGCRFLHGYHRFMHSVGRVFSKWGESPNRSRR
modifications: left off: a dimerising Fc or GST; large carriers; small tags and cut ends
As for B1, the “ability to compete with wt OSM for gp130 binding” value (shortened to “ability to compete with wt OSM”) in assay [4] is “substantial decrease”. In addition, in assay [5], the “driving sPAP production” value is reported as “less effective at driving sPAP production; also recorded: didn't drive sPAP at all” and the “'Potency'” value is on record as “NONE”.

B2: (22) N123A: OSM-GST fusion, alanine for Asn 123 (protein)
chain: AAIGSCSKEYRVLLGQLQKQTDLMQDTSRLLDPYIRIQGLDVPKLREHCRERPGAFPSEETLRGLGRRGFLQTLNATLGCVLHRLADLEQRLPKAQDLERSGLNIEDLEKLQMARPNILGLRANIYCMAQLLDNSDTAEPTKAGRGASQPPTPTPASDAFQRKLEGCRFLHGYHRFMHSVGRVFSKWGESPNRSRR
modifications: left off: a dimerising Fc or GST; large carriers; small tags and cut ends
In the case of B2, in assay [4], the “ability to compete with wt OSM” value is listed as “substantial decrease”. Moreover, in assay [5], the “Expt 1 EC50” value stood at 0.0379 µg/mL, the “Expt 2 EC50” value worked out at 0.0497 µg/mL and the “'Potency'” value is “LESS (>120% Less potent than wild type)”.

B3: (23) N124A: OSM-GST fusion, alanine for Asn 124 (protein)
chain: AAIGSCSKEYRVLLGQLQKQTDLMQDTSRLLDPYIRIQGLDVPKLREHCRERPGAFPSEETLRGLGRRGFLQTLNATLGCVLHRLADLEQRLPKAQDLERSGLNIEDLEKLQMARPNILGLRNAIYCMAQLLDNSDTAEPTKAGRGASQPPTPTPASDAFQRKLEGCRFLHGYHRFMHSVGRVFSKWGESPNRSRR
modifications: left off: a dimerising Fc or GST; large carriers; small tags and cut ends
As for B3, the “ability to compete with wt OSM” value in assay [4] is “substantial decrease”. Moreover, in assay [5], the “Expt 1 EC50” value amounted to 0.0302 µg/mL, the “Expt 2 EC50” value was 0.0362 µg/mL and the “'Potency'” value is listed as “EQUAL (80-120% Equal potency)”.
